Test results as given in the supplement of paper PMC10567573.
± gives the standard deviation.

Assay: protein stability index of a GFP-peptide fusion (GPS, HEK-293T) (PSI 1-6); higher = more stable
[1] = treatment: DMSO, c terminus: a fixed tail appended
[2] = treatment: MLN4924 1 uM, 8 h, c terminus: a fixed tail appended
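Further: 24-mer peptide tiles fused after GFP, lentivirally expressed, FACS-sorted into six equal bins by GFP/DsRed ratio, decoded by Illumina sequencing, PSI is the read-weighted mean bin number.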

LPPVAVRSLQDLARIAIRGTIKKI [PCMTD2]
protein stability index [1]: 3.2 ± 0.34
protein stability index [2]: 3.12 ± 0.22

LPQEHSQIYHCTKRKEEECSTTDH [TBX5]
protein stability index [1]: 5.39 ± 0.21
protein stability index [2]: 5.49 ± 0.11

LPWQGLKADTLKERYQKIGDTKRA [CSNK1G3]
protein stability index [1]: 3.77 ± 0.11
protein stability index [2]: 3.76 ± 0.41

LPYPKDVYSVSVDQKERCIIVRTT [DPCD]
protein stability index [1]: 2.21 ± 0.22
protein stability index [2]: 2.18 ± 0.22

LQIELGKCKAEHDQLLLNYAKKES [LMNB1]
protein stability index [1]: 3.29 ± 0.24
protein stability index [2]: 3.33 ± 0.33

LQSYQAEIIELRRTVNALEIELQA [KRT33B]
protein stability index [1]: 2.59 ± 0.54
protein stability index [2]: 2.27 ± 0.3

LQVAGLSEEQLQEPITGWRKTVCH [LPCAT4]
protein stability index [1]: 3.29 ± 0.25
protein stability index [2]: 3.47 ± 0.12

LRLLVESDINSIRRILDELTLCKS [KRT34]
protein stability index [1]: 2.22 ± 0.5
protein stability index [2]: 2.16 ± 0.12

LRNITNSQAPDGRRKSEAGSGAAS [CDC25B]
protein stability index [1]: 4.89 ± 0.24
protein stability index [2]: 5.1 ± 0.16

LRPPHTSRGTSQTPNASSPGNPTA [LPCAT4]
protein stability index [1]: 4.76 ± 0.17
protein stability index [2]: 4.85 ± 0.21

LRQQQHKQNKQVLGYCLLLMLAGM [DNAJC4]
protein stability index [1]: 2.28 ± 0.48
protein stability index [2]: 2.41 ± 0.18

LSALLQFGVTYLEDYSAEYIIQQG [BCL2L13]
protein stability index [1]: 2.9 ± 0.42
protein stability index [2]: 2.43 ± 0.55

LSANLHGGAVVANYPYDKSFEHRV [CPN1]
protein stability index [1]: 3.46 ± 0.27
protein stability index [2]: 3.5 ± 0.28

LSDREVVNLFLHFTVNPKPRVEYI [BTBD1]
protein stability index [1]: 2.98 ± 0.73
protein stability index [2]: 2.5 ± 0.26

LSEDYNKMTPVKNYQAHQSRVTMI [WDFY2]
protein stability index [1]: 2.71 ± 0.12
protein stability index [2]: 2.83 ± 0.13

LSEKEINAREESLVEELSPASEKK [BCL2L13]
protein stability index [1]: 5.42 ± 0.46
protein stability index [2]: 5.58 ± 0.15

LSFYDAERHCHLYTFHARFGEVRP [TRIM35]
protein stability index [1]: 2.34 ± 0.54
protein stability index [2]: 2.3 ± 0.55

LSLQDQVDTLTFQSQSLRDRARRF [MTUS2]
protein stability index [1]: 3.91 ± 0.26
protein stability index [2]: 3.84 ± 0.18

LSRCEFQRAKCKDPQLEIAYRGNC [SMOC2]
protein stability index [1]: 3.23 ± 0.42
protein stability index [2]: 3.14 ± 0.23

LSRHSKGLQILGHTLRASMRELGL [KCNA4]
protein stability index [1]: 2.25 ± 0.21
protein stability index [2]: 2.25 ± 0.024

LSSAPSSRAEPIRTTVFQYPVGWP [ZMAT5]
protein stability index [1]: 2.86 ± 0.22
protein stability index [2]: 2.94 ± 0.19

LTADSRKSHLIFPQPNYADTLISQ [PCDHGA10]
protein stability index [1]: 3.17 ± 0.17
protein stability index [2]: 3.11 ± 0.27

LTASTMEILLDFVYTETVHVTVEN [KLHL12]
protein stability index [1]: 2.9 ± 0.79
protein stability index [2]: 3.29 ± 1.4

LTICYPEYAGSNTYEEAAAYIQCQ [GNAI1]
protein stability index [1]: 2.46 ± 0.25
protein stability index [2]: 2.43 ± 0.46

LTKASLKPRGCSKPPWRPPGGKL [SPACA9]
protein stability index (treatment: DMSO, c terminus: native): 2.55 ± 0.65
protein stability index (treatment: MLN4924 1 uM, 8 h, c terminus: native): 3.35 ± 1

LTPGFSDNAIMLFSPDFTLRNTLK [FAN1]
protein stability index [1]: 2.4 ± 0.3
protein stability index [2]: 2.65 ± 0.54

LTSMRRLSSIKRDTNSIAKAIKAR [STX11]
protein stability index [1]: 3.4 ± 0.26
protein stability index [2]: 3.64 ± 0.34

LVAEVPKEHWTPEGHSIVGFAMYY [SAT1]
protein stability index [1]: 2.81 ± 0.58
protein stability index [2]: 2.57 ± 0.39

LVENAKNFPQCVLEISDQEVLEWY [EFHC1]
protein stability index [1]: 2.96 ± 0.23
protein stability index [2]: 2.87 ± 0.23

LVLKAHHDIVRFLVQLDDYRFASA [WDR41]
protein stability index [1]: 2.96 ± 0.52
protein stability index [2]: 2.96 ± 0.67

LVQLRGRLTSQDWERVHLIVAGGY [ALG2]
protein stability index [1]: 2.03 ± 0.62
protein stability index [2]: 2.44 ± 0.58

LVSQSNDLSSLRAKYPHDVVNHLS [SPACA9]
protein stability index [1]: 3.09 ± 0.19
protein stability index [2]: 3.19 ± 0.21

LWENTRFTDCSFFVRGQEFKAHKS [SPOPL]
protein stability index [1]: 2.74 ± 0.32
protein stability index [2]: 2.98 ± 0.25

LWSLFVPFTVYQVRWLRPVHRQLG [AUP1]
protein stability index [1]: 2.82 ± 0.59
protein stability index [2]: 2.59 ± 0.69

LYIQSHYQLELQCCIDWTHVTDPL [SMG5]
protein stability index [1]: 3.31 ± 0.46
protein stability index [2]: 3.06 ± 0.42

LYYFRLAARSPQGLGASTAEISAR [PTPRD]
protein stability index [1]: 2.34 ± 0.42
protein stability index [2]: 2.33 ± 0.39

MAEPSAATQSHSISSSSFGAEPSA [RTN3]
protein stability index [1]: 5.06 ± 0.096
protein stability index [2]: 5.17 ± 0.13

MAGLQRLASHLPVGVMLPHNTTEA [ZC2HC1C]
protein stability index [1]: 3.5 ± 0.13
protein stability index [2]: 3.36 ± 0.27

MAHGYGEESEEERGLEPGKGRHHR [CHGB]
protein stability index [1]: 5.22 ± 0.27
protein stability index [2]: 5.34 ± 0.11

MDALQLANSAFAVDLFKQLCEKEP [SERPINB5]
protein stability index [1]: 3.5 ± 0.36
protein stability index [2]: 3.53 ± 0.16

MDVPGPVSRRAAAAAATVLLRTAR [SLC19A2]
protein stability index [1]: 3.29 ± 0.23
protein stability index [2]: 3.42 ± 0.089

MECQPESSISHRFHKDCASRVNNA [EHMT1]
protein stability index [1]: 4.28 ± 0.38
protein stability index [2]: 4.15 ± 0.39

MERVNETVVREVIFLGFSSLARLQ [OR10K2]
protein stability index [1]: 2.64 ± 0.65
protein stability index [2]: 2.4 ± 0.5

MFPLHLAALNAHSDCCRKLLSSGF [ANKRD44]
protein stability index [1]: 2.57 ± 0.4
protein stability index [2]: 2.15 ± 0.31

MGHIKPDLIDVDLIRGSTFAKAKP [PHTF1]
protein stability index [1]: 3.56 ± 0.24
protein stability index [2]: 3.67 ± 0.35

MHKHNETSQKIAARAFAQRYLADL [RSPH3]
protein stability index [1]: 2.63 ± 0.094
protein stability index [2]: 2.84 ± 0.22

MIVDLLSEKKTISFQGCMAQLFMD [OR4A15]
protein stability index [1]: 2.74 ± 0.52
protein stability index [2]: 2.42 ± 0.46

MKMEEAVGKVEELIESEAPPKASE [C18orf25]
protein stability index [1]: 5.59 ± 0.15
protein stability index [2]: 5.48 ± 0.57

MKRSKELITKNHSQEETSILRCWK [RNF180]
protein stability index [1]: 3.11 ± 0.24
protein stability index [2]: 3.19 ± 0.058

MLGKYNTPVSYRMAKTLVFSKVKT [ACSBG2]
protein stability index [1]: 2.46 ± 0.31
protein stability index [2]: 2.35 ± 0.23

MLLQHQICKEVQAEQEPTRKLFEV [SPAG8]
protein stability index [1]: 2.79 ± 0.26
protein stability index [2]: 2.78 ± 0.23

MLPGVLAGVSAEESWAGPQPLETL [SCNN1D]
protein stability index [1]: 3.38 ± 0.34
protein stability index [2]: 3.53 ± 0.37

MMHGGSYSLTTSSTHKRSSLRKVK [RAB40B]
protein stability index [1]: 4.15 ± 0.25
protein stability index [2]: 4.35 ± 0.15

MPPATGGGLAESELRPRRGRCGPQ [POMT2]
protein stability index [1]: 4.59 ± 0.17
protein stability index [2]: 4.61 ± 0.18

MQNGAGASRTSTIFLNGNRERPLN [TNXB]
protein stability index [1]: 3.7 ± 0.49
protein stability index [2]: 4.06 ± 0.2

MSQALKATFSGFKKEQRRLGIPKN [ETS2]
protein stability index [1]: 2.98 ± 0.29
protein stability index [2]: 3.08 ± 0.3

MSSVQQQPPPPRRVTNVGSLLLTP [WASL]
protein stability index [1]: 3.7 ± 0.28
protein stability index [2]: 3.75 ± 0.3

MTEAALALSEQKAQDLGELLATAE [LRRC45]
protein stability index [1]: 5.16 ± 0.13
protein stability index [2]: 5.08 ± 0.13

MTTHPLTNNNIKQRLIKKVQEAVL [GOLPH3]
protein stability index [1]: 2.79 ± 0.65
protein stability index [2]: 2.65 ± 0.59

MTVEEIYKDRQKFSEQVFKVASSD [FLOT1]
protein stability index [1]: 3.83 ± 0.21
protein stability index [2]: 3.61 ± 0.31

MYEMLIGYPPFCSETPQETYRKVM [STK38L]
protein stability index [1]: 2.2 ± 0.33
protein stability index [2]: 2.1 ± 0.3

NAAYFVGKWMKKFPESETKECPFR [SERPINB5]
protein stability index [1]: 2.77 ± 0.29
protein stability index [2]: 2.98 ± 0.47

NEIESRHRELLRLESRIRDVHELF [STX11]
protein stability index [1]: 3.54 ± 0.21
protein stability index [2]: 3.65 ± 0.22

NFFNQVLMLGKTSISDLSEHVFDL [PDS5B]
protein stability index [1]: 2.56 ± 0.54
protein stability index [2]: 2.63 ± 0.32

NFSQPVAGRPSLLRHDEVRTYFHE [NLN]
protein stability index [1]: 3.36 ± 0.61
protein stability index [2]: 3.33 ± 0.31

NGISPIIIDNTNLHAWEMKPYAVM [N4BP2L1]
protein stability index [1]: 2.46 ± 0.37
protein stability index [2]: 2.01 ± 0.25

NGTGDSNDFWRIEVVNRKFGNRIK [POMT2]
protein stability index [1]: 3.25 ± 0.26
protein stability index [2]: 3.46 ± 0.41

NHEEDAGVRCNTPAMGLQKKLRLN [LOXL2]
protein stability index [1]: 4.64 ± 0.12
protein stability index [2]: 4.5 ± 0.36

NISDADVHNAMDNYECNLYTFLYL [FEM1B]
protein stability index [1]: 2.25 ± 0.66
protein stability index [2]: 2.42 ± 0.45

NKHLFYAEDFSTMDEISEKLKKGI [MATN2]
protein stability index [1]: 3.79 ± 0.36
protein stability index [2]: 3.76 ± 0.39

NKTQQVIHIIDFGLAKEYIDPETK [CSNK1G3]
protein stability index [1]: 2.48 ± 0.52
protein stability index [2]: 2.47 ± 0.41

NLITTVTPEKKAEEERDEEEDKRR [EPB41L3]
protein stability index [1]: 5.61 ± 0.35
protein stability index [2]: 5.56 ± 0.2

NLSLVCLPRSEDDDCDDDDDDAQI [DRICH1]
protein stability index [1]: 5.42 ± 0.28
protein stability index [2]: 5.5 ± 0.26

NNFREYNLHRVAAHELGHSLGLSH [MMP1]
protein stability index [1]: 2.85 ± 0.22
protein stability index [2]: 3.01 ± 0.13

NNQITCRNGQWSEPPKCLDPCVIS [CFHR2]
protein stability index [1]: 3.34 ± 0.2
protein stability index [2]: 3.32 ± 0.25

NQHCLDTAFNFFKMAVSRHLTRGR [BRF1]
protein stability index [1]: 2.19 ± 0.12
protein stability index [2]: 2.25 ± 0.22

NQHDTEMKYYIVHLKRHFMFRNHL [DYRK1B]
protein stability index [1]: 2.45 ± 0.23
protein stability index [2]: 2.3 ± 0.15

NSEVYLPNINKISMQAVLDYLYTK [RHOBTB1]
protein stability index [1]: 2.17 ± 0.29
protein stability index [2]: 2.35 ± 0.16

NSHFSLNVKTLKDGKPFPELVLEQ [PCDHGC5]
protein stability index [1]: 3.42 ± 0.18
protein stability index [2]: 3.76 ± 0.27

NSLAALDLSGIQTSDAAFLTQWKD [ZER1]
protein stability index [1]: 4.25 ± 0.2
protein stability index [2]: 4.29 ± 0.23

NSRFQMLFTSFQEPPCEGNTFFCH [NETO1]
protein stability index [1]: 2.23 ± 0.45
protein stability index [2]: 2.23 ± 0.11

NSSGDFSQAHSTLKLANHQRPVSR [TRAF3IP2]
protein stability index [1]: 4.43 ± 0.32
protein stability index [2]: 4.63 ± 0.38

NTEEQLEIALAPYQHLEEDMKSLK [MTUS2]
protein stability index [1]: 4.78 ± 0.17
protein stability index [2]: 4.8 ± 0.28

NTRVRELAQAAGFAPQTGARPSET [DNAAF3]
protein stability index [1]: 4.71 ± 0.11
protein stability index [2]: 4.79 ± 0.25

NVDDPTGAHSNAPITAHAEVEVVE [CSNK1G1]
protein stability index [1]: 5.35 ± 0.61
protein stability index [2]: 5.39 ± 0.47

PAAAPEGDWARLLEQMGALAVRGS [ZBED3]
protein stability index [1]: 3.62 ± 0.3
protein stability index [2]: 3.59 ± 0.37

PAEGEGRLGRCMRRLRDMVERPHS [KCNG1]
protein stability index [1]: 4.17 ± 0.14
protein stability index [2]: 4.11 ± 0.35

PAGFRVSTLGTLQPPPAPPKKIMP [PPFIA4]
protein stability index [1]: 4.14 ± 0.42
protein stability index [2]: 4.07 ± 0.43
